{"source": "paper PMC3477848", "about": "(Biochemistry, 2012)", "test_in_all_cases": "fluorescence anisotropy", "key": {"[1]": {"target": "T1, Dpo4 (SsoDpo4, Y-family DNA polymerase) (Sulfolobus solfataricus, UniProt Q97W02 1-352)", "T1 sequence": "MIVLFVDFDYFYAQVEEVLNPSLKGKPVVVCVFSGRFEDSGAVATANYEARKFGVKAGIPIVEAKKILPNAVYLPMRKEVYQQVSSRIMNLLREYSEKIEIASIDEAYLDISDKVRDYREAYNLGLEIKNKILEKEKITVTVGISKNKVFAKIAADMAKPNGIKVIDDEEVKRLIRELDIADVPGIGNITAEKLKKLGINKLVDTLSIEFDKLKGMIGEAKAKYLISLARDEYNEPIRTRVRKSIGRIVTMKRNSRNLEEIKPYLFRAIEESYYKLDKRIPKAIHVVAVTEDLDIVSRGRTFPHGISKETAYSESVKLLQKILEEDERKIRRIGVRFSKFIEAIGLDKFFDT"}, "[2]": {"target": "T2, Dpo1 exo- (SsoDpo1, B-family DNA polymerase) (Sulfolobus solfataricus, UniProt P26811 1-882, D231A;D318A)", "T2 sequence": "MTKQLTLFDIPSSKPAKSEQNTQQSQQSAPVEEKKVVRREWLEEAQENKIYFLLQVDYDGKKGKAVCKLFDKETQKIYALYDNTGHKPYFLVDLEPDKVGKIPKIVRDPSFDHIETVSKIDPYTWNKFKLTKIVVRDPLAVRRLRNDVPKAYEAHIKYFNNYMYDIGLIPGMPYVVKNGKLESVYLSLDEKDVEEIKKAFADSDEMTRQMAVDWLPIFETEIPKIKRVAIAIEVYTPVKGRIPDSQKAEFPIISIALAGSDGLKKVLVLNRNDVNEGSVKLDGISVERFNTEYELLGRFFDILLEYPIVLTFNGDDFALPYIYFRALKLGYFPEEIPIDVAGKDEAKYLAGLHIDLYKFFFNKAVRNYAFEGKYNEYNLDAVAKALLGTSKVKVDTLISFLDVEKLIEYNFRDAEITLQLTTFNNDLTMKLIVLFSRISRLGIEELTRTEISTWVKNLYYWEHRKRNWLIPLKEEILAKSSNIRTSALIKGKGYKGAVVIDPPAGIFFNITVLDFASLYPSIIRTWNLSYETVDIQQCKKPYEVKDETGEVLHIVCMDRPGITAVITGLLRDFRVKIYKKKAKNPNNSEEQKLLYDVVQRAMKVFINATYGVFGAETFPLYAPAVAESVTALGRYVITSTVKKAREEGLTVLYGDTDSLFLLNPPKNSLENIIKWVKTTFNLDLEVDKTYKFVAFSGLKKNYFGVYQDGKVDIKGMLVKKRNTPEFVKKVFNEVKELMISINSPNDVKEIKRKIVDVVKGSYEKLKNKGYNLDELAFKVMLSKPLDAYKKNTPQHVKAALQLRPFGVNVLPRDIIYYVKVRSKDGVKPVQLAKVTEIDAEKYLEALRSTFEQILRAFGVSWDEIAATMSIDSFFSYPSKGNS"}, "[3]": {"target": "T1, Dpo4 (SsoDpo4, Y-family DNA polymerase)", "remark": "listed apart in the source"}, "[4]": {"target": "T2, Dpo1 exo- (SsoDpo1, B-family DNA …)", "remark": "listed apart in the source"}, "[5]": {"target": "T1, Dpo4 (SsoDpo4, Y-family DNA polymerase)", "remark": "listed apart in the source"}, "[6]": {"target": "T2, Dpo1 exo- (SsoDpo1, B-family DNA …)", "remark": "listed apart in the source"}, "[7]": {"target": "T1, Dpo4 (SsoDpo4, Y-family DNA polymerase)", "remark": "listed apart in the source"}, "[8]": {"target": "T1, Dpo4 (SsoDpo4, Y-family DNA polymerase)", "remark": "listed apart in the source"}}, "note": "Where two headings read alike, the source gives them in different places.", "data": [{"binder": "TTTTTTTTTTCCCGGGCCGGCGTTTCGCCGGCCCGGG (structured_DNA)", "note": "[37-nt hairpin primer-template, 5'-Cy3]", "values": [{"measurement": "Kd", "setting": "[1]", "value": "0.435 ± 0.116", "unit": "µM"}, {"measurement": "Kd", "setting": "[2]", "value": "0.322 ± 0.023", "unit": "µM"}, {"measurement": "Kd", "setting": "[3]", "value": "0.329 ± 0.107", "unit": "µM"}, {"measurement": "Kd", "setting": "[4]", "value": "0.208 ± 0.057", "unit": "µM"}, {"measurement": "Kd", "setting": "[5]", "value": "0.164 ± 0.009", "unit": "µM"}, {"measurement": "Kd", "setting": "[6]", "value": "0.094 ± 0.001", "unit": "µM"}, {"measurement": "Kd", "setting": "[7]", "value": "0.13 ± 0.004", "unit": "µM"}, {"measurement": "Kd", "setting": "[8]", "value": "0.674 ± 0.08", "unit": "µM"}]}]}
